Target: Notch1-Fc
Assay: competition ELISA: Dll4-Fc premixed with 50 ng Dll4 (E8)-AP on coated Notch1-Fc; reference Dll4-L1-Fc

B1: Dll4-L2-Fc (Fc fusion, part only; not given: linker, Fc, not shown: a dimerising Fc or GST)
chain, part: SGVFQLQLQEFINERGVLASGRPCEPGCRTFFRVCLKHFQAVVSPGPCTFGTVSTPVLGTNSFAVRDDSSGGGRNPLQLPFNFTWPGTFSLIIEAWHAPGDDLRPEALPPDALISKIAIQGSLAVGQNWLLDEQTSTLTRLRYSYRVICSDNYYGDNCSRLCKKRNDHFGHYVCQPDGNLSCLPGWTGEYCQQPICLSGCHEQNGYCSKPAECLCRPGWQGRLCNECIPHNGCRHGTCSTPWQCTCDEGWGGLFCDQDLNYCTHHSPCKNGATCSNSGQRSYTCTCRPGYTGVDCELELSECDSNPCRNGGSCKDQEDGYHCLCPPGYYGLHCEHSTLSCADSPCFNGGSCRERNQGANYACECPPNFTGSNCEKKVDRCTSNPCANGGQCLNRGP
fold difference between L1 and L2 fusion proteins: 3 fold
